Data taken from patent US12391768B2, “Antibodies to ticagrelor and methods of use” (MEDIMMUNE LIMITED, priority 2014, dated 2025).
Where two headings read alike, the source gives them in different places.

Tests used:
TICA0072 Fab = experiment: HTRF competition binding selectivity assay, TICA0072 His-Fab; design: species or system human
Description: (§1) Total Binding control wells were set up which contained all of the assay components above except that 5 ul assay buffer was added in place of the test selectivity compound addition. Negative Binding control wells were set up which contained all of the assay components included in the Total Binding control wells except that 5ul assay buffer was added in place of the His-Fab addition. Test compound serial titrations were either ½ or ⅓ depending on the particular experiment and top final assay compound concentrations were optimized on a compound specific basis. The concentration of biotinylated ticagrelor and His-Fab was optimized on a Fab specific basis in separate experiments. For the four Fabs investigated at the end of the lead isolation phase (TICA0010, TICA0049, TICA0053 and TICA0072) the final assay reagent concentrations used are set out in Table 1 below:
(§2) For the two Fabs investigated at the end of the lead optimization phase (TICA0162 and TICA0212) the final assay reagent concentrations used were 5nM biotinylated ticagrelor and 1 nM His Fab in both cases. […] In order to enable subsequent normalization of data to correct for any such vehicle related effects parallel titrations of DMSO alone were included in most experiments in which the final assay DMSO concentrations mirrored those of the test compound serial dilutions. At the end of the set up procedure that assay was incubated for 3hrs at RT before being read on an Envision plate reader using a standard read protocol.
(§3) The negative ratio value used in the calculation of % Delta F was derived from the Negative Binding control wells. % Delta F values were then used to calculate % Specific Binding values according to the equation below: Specific Binding (%)={(Sample Delta F−Negative Binding Delta F)/(Total Binding Delta F−Negative Binding Delta F)}×100
(§4) For standard calculations of % Specific Binding Total Binding Delta F was taken from Total Binding control wells which contained all of the aforementioned components of the assay but without inclusion of any competing test compound.
(§5) In those experiments where DMSO normalization was applied DMSO normalised % Specific Binding was calculated essentially according to the equation above except that in this case Total Binding Delta F was taken from wells containing all of the components in the Total Binding control wells as well as DMSO at a concentration equivalent to that in the relevant sample well.
(§6) In a second series of experiments further selectivity data was generated for TICA0049 and TICA0072 Fabs in which a subset of four of the twelve compounds listed in FIG. 4 were retested along with ticagrelor, TAM and TIM and several adenosine related compounds. Here, in a refinement to the earlier investigations in Table 2, experiments were designed in order to enable normalisation of percent specific binding values to correct for any non-specific vehicle related effects due to DMSO. Example plotted data from this second series of experiments is shown in FIG. 5A-F along with tabulated IC50 values in Table 3.

[1] = human, in vivo; cited from earlier work
TICA0053 Fab = experiment: HTRF competition binding selectivity assay, TICA0053 His-Fab; design: species or system human; details: first series (Table 2), not DMSO normalised; read-out: IC50 (uM) for inhibition of biotinylated ticagrelor binding to TICA0053 his-Fab
Description: as §1, §2, §3, §4, §5

TICA0049 Fab = experiment: HTRF competition binding selectivity assay, TICA0049 His-Fab; design: species or system human
Description: as §1, §2, §3, §4, §5, §6

TICA0010 Fab = experiment: HTRF competition binding selectivity assay, TICA0010 His-Fab; design: species or system human; details: first series (Table 2), not DMSO normalised; read-out: IC50 (uM) for inhibition of biotinylated ticagrelor binding to TICA00l0 his-Fab
Description: as §1, §2, §3, §4, §5

[2] = test system: ticagrelor mediated inhibition of ADP-induced platelet aggregation; experiment: Light transmission aggregometry in human PRP, reversal of ticagrelor; assay type: cell-based; details: for mean extent of reversal of ticagrelor mediated inhibition: Example 10, 1 μM Fab, n=3
Description: (§7) The extent and potency of TICA0212/MEDI2452 to reverse ticagrelor or TAM mediated inhibition of ADP-induced platelet aggregation was determined in human platelet rich plasma (PRP) using light transmission aggregometry.
(§8) For the in vitro human PRP assay, blood was collected from fasted healthy volunteers by vein puncture of vena cephalica. […] The anticoagulated human blood was centrifuged at 240× g for 15 min. PRP was carefully removed and transferred to a clean vial. Platelet poor plasma (PPP) was prepared by centrifugation of the PRP at 2000× g for 15 min. Light transmission aggregometry (LTA) was evaluated in PRP by the Platelet Aggregation Profiler (PAP-8E, Bio/Data Corporation, PA, USA.). Zero % aggregation was defined as the light transmission of PRP and 100% aggregation was defined as the light transmission of PPP.
(§9) PRP was preincubated with 1 μM ticagrelor or TAM for 1 hour before co-incubating with different concentrations of TICA0212 or an isotype control Fab for 30 minutes. Platelet aggregation was initiated by addition of 20 uM ADP and was continuously recorded for 6 min. Data for final aggregation (FA) extent at 6 min was analysed.
(§10) The time of onset of TICA0212/MEDI2452 to reverse ticagrelor or TAM was determined in human platelet rich plasma (PRP) using light transmission aggregometry as in example 8. PRP was preincubated with 1 μM ticagrelor or TAM for 1 hour before adding 1 μM TICA0212/MEDI2452 and co-incubating for 5, 10, 15, 30 and 60 min, or adding an isotype control Fab for 30 min. Platelet aggregation was initiated by addition of 20 μM ADP and was continuously recorded for 6 min. Data for final aggregation (FA) extent at 6 min was analyzed.

[3] = test system: TAM mediated inhibition of ADP-induced platelet aggregation; experiment: Light transmission aggregometry in human PRP, reversal of TAM; assay type: cell-based; details: for mean extent of TAM reversal: Example 10, 1 μM Fab, n=3
Description: as §7, §8, §9, §10

CCCSc1nc(N[C@@H]2C[C@H]2c2ccc(F)c(F)c2)c2nnn([C@@H]3C[C@H](OCCO)[C@@H](O)[C@H]3O)c2n1 [Ticagrelor, (1S,2S,3R,5S)-3-[7-{[(1R,2S)-2-(3,4-difluorophenyl)cyclopropyl]amino}-5-(propylthio)-3H-[1,2,3]triazolo[4,5-d]pyrimidin-3-yl]-5-(2-hydroxyethoxy)cyclopentane-1,2-diol]
IC50 (TICA0072 Fab; first series (Table 2), not DMSO normalised, read-out: IC50 (uM) for inhibition of biotinylated ticagrelor binding to TICA0072 his-Fab): 0.113 µM | IC50 (TICA0072 Fab; second series (Table 3), DMSO normalised, read-out: IC50 in competition binding selectivity studies, TICA0072): 0.356 µM | circulating half-life [1]: 8 h | IC50 (TICA0053 Fab): 0.109 µM | IC50 (TICA0049 Fab; first series (Table 2), not DMSO normalised, read-out: IC50 (uM) for inhibition of biotinylated ticagrelor binding to TICA0049 his-Fab): 0.257 µM | IC50 (TICA0049 Fab; second series (Table 3), DMSO normalised, read-out: IC50 in competition binding selectivity studies, TICA0049): 0.368 µM | IC50 (TICA0010 Fab): 0.122 µM

B1: TICA0212: combination of TICA0162 and TICA0152; VH SEQ ID NO:72, VL SEQ ID NO:77 (antibody, listed as Homo sapiens, V domains shown)
VH: QVQLQESGAEVKKPGSSVRVSCKASGGTFDSYSIHWVRQAPGQGLEWMGGIIPAFGTLSSAQDFQARVTISADKSTSTAYMELSGLRSEDTAVYYCARGSFDYYFWSASHPPNDALAIWGQGTLVTVSS
VL: QSVVTQPPSVSAAPGQKVTISCSGSNSDIGNNYVSWYQQLPGTAPKLLIYDNNKRPSGIPDRFSGSKSGTSATLAITGLQAGDEADYYCGTWLYDRAVGLFGGGTKVTVL
IC50 ([2]; 1 μM ticagrelor, 20 μM ADP, human PRP, 30 min co-incubation, mean n=5, read-out: IC50, half-maximum reversal of ticagrelor mediated inhibition of ADP-induced platelet aggregation): 640 nM | mean extent of reversal of ticagrelor ([2]; Example 9, 1:1 conditions (1 μM Fab: 1 μM ticagrelor), 30 min incubation): 78% | mean extent of reversal of ticagrelor mediated inhibition ([2]; 1 μM ticagrelor, co-incubation 5 min): 85% | mean extent of reversal of ticagrelor mediated inhibition ([2]; 1 μM ticagrelor, co-incubation 10 min): 69% | mean extent of reversal of ticagrelor mediated inhibition ([2]; 1 μM ticagrelor, co-incubation 15 min): 74% | mean extent of reversal of ticagrelor mediated inhibition ([2]; 1 μM ticagrelor, co-incubation 30 min): 80% | mean extent of reversal of ticagrelor mediated inhibition ([2]; 1 μM ticagrelor, co-incubation 60 min): 81% | IC50 ([3]; 1 μM TAM, 20 μM ADP, human PRP, 30 min co-incubation, mean n=5, read-out: IC50, half-maximum reversal of TAM mediated inhibition of ADP-induced platelet aggregation): 780 nM | mean extent of reversal of TAM ([3]; Example 9, 1:1 conditions (1 μM Fab: 1 μM TAM), 30 min incubation): 62% | mean extent of TAM reversal ([3]; 1 μM TAM, co-incubation 5 min): 53% | mean extent of TAM reversal ([3]; 1 μM TAM, co-incubation 10 min): 56% | mean extent of TAM reversal ([3]; 1 μM TAM, co-incubation 15 min): 58% | mean extent of TAM reversal ([3]; 1 μM TAM, co-incubation 30 min): 69% | mean extent of TAM reversal ([3]; 1 μM TAM, co-incubation 60 min): 74%
